Measured values reported in patent US20230257473A1 (TENEOBIO, published 2023).

What was measured:
[1] = target: BCMA on BCMA-expressing cells (H929 / NCI-H929, MM1.S, U266, Daudi) (human) (UniProt Q02223); experiment: flow cytometry on H929 cells; antibody 3.130 ng/ml
[2] = target: BCMA on BCMA-expressing cells (H929 / NCI-H929, MM1.S, U266, Daudi) (human) (UniProt Q02223); experiment: flow cytometry on H929 cells; antibody 6.250 ng/ml
[3] = target: BCMA on BCMA-expressing cells (H929 / NCI-H929, MM1.S, U266, Daudi) (human) (UniProt Q02223); experiment: flow cytometry on MM1.S cells; antibody 0.195 ng/ml
[4] = target: BCMA on BCMA-expressing cells (H929 / NCI-H929, MM1.S, U266, Daudi) (human) (UniProt Q02223); experiment: flow cytometry on MM1.S cells; antibody 6.250 ng/ml
[5] = target: BCMA on BCMA-expressing cells (H929 / NCI-H929, MM1.S, U266, Daudi) (human) (UniProt Q02223); experiment: flow cytometry on H929 cells; antibody 200.000 ng/ml
[6] = target: BCMA on BCMA-expressing cells (H929 / NCI-H929, MM1.S, U266, Daudi) (human) (UniProt Q02223); experiment: flow cytometry on MM1.S cells; antibody 50.000 ng/ml
[7] = target: recombinant BCMA (R&D Systems, catalog no. 193-BC) (human) (UniProt Q02223); experiment: competitive ELISA, plate-bound BCMA; Ab 0.020 ng/mL; competitor APRIL 0.00 ng/mL
Chain of recombinant BCMA (R&D Systems, catalog no. 193-BC) (human) (Q02223 5-51 limits assumed): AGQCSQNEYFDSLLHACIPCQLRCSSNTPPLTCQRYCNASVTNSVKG

[8] = target: recombinant BCMA (R&D Systems, catalog no. 193-BC) (human) (UniProt Q02223); experiment: competitive ELISA, plate-bound BCMA; Ab 0.002 ng/mL; competitor APRIL 62.50 ng/mL
[9] = target: recombinant BCMA (R&D Systems, catalog no. 193-BC) (human) (UniProt Q02223); experiment: competitive ELISA, plate-bound BCMA; Ab 0.020 ng/mL; competitor APRIL 15.63 ng/mL
[10] = target: recombinant BCMA (R&D Systems, catalog no. 193-BC) (human) (UniProt Q02223); experiment: competitive ELISA, plate-bound BCMA; Ab 0.200 ng/mL; competitor APRIL 15.63 ng/mL
[11] = target: recombinant BCMA (R&D Systems, catalog no. 193-BC) (human) (UniProt Q02223); experiment: competitive ELISA, plate-bound BCMA; Ab 2.000 ng/mL; competitor APRIL 15.63 ng/mL
[12] = target: recombinant BCMA (R&D Systems, catalog no. 193-BC) (human) (UniProt Q02223); experiment: competitive ELISA, plate-bound BCMA; Ab 2.000 ng/mL; competitor APRIL 62.50 ng/mL
[13] = target: recombinant BCMA (R&D Systems, catalog no. 193-BC) (human) (UniProt Q02223); experiment: competitive ELISA, plate-bound BCMA; Ab 20.000 ng/mL; competitor APRIL 0.00 ng/mL
[14] = target: recombinant BCMA (R&D Systems, catalog no. 193-BC) (human) (UniProt Q02223); experiment: competitive ELISA, plate-bound BCMA; Ab 20.000 ng/mL; competitor APRIL 7.81 ng/mL
[15] = target: recombinant BCMA (R&D Systems, catalog no. 193-BC) (human) (UniProt Q02223); experiment: competitive ELISA, plate-bound BCMA; Ab 0.020 ng/mL; competitor APRIL 500.00 ng/mL
[16] = target: recombinant BCMA (R&D Systems, catalog no. 193-BC) (human) (UniProt Q02223); experiment: competitive ELISA, plate-bound BCMA; Ab 0.200 ng/mL; competitor APRIL 125.00 ng/mL
[17] = target: recombinant BCMA (R&D Systems, catalog no. 193-BC) (human) (UniProt Q02223); experiment: competitive ELISA, plate-bound BCMA; Ab 0.200 ng/mL; competitor APRIL 250.00 ng/mL
[18] = target: recombinant BCMA (R&D Systems, catalog no. 193-BC) (human) (UniProt Q02223); experiment: competitive ELISA, plate-bound BCMA; Ab 2.000 ng/mL; competitor APRIL 125.00 ng/mL
[19] = target: recombinant BCMA (R&D Systems, catalog no. 193-BC) (human) (UniProt Q02223); experiment: competitive ELISA, plate-bound BCMA; Ab 2.000 ng/mL; competitor APRIL 500.00 ng/mL
[20] = target: recombinant BCMA (R&D Systems, catalog no. 193-BC) (human) (UniProt Q02223); experiment: competitive ELISA, plate-bound BCMA; Ab 20.000 ng/mL; competitor APRIL 15.63 ng/mL
[21] = target: recombinant BCMA (R&D Systems, catalog no. 193-BC) (human) (UniProt Q02223); experiment: competitive ELISA, plate-bound BCMA; Ab 20.000 ng/mL; competitor APRIL 62.50 ng/mL
[22] = target: recombinant BCMA (R&D Systems, catalog no. 193-BC) (human) (UniProt Q02223); experiment: competitive ELISA, plate-bound BCMA; Ab 200.000 ng/mL; competitor APRIL 0.00 ng/mL
[23] = target: recombinant BCMA (R&D Systems, catalog no. 193-BC) (human) (UniProt Q02223); experiment: competitive ELISA, plate-bound BCMA; Ab 20.000 ng/mL; competitor APRIL 125.00 ng/mL
[24] = target: recombinant BCMA (R&D Systems, catalog no. 193-BC) (human) (UniProt Q02223); experiment: competitive ELISA, plate-bound BCMA; Ab 20.000 ng/mL; competitor APRIL 500.00 ng/mL
[25] = target: recombinant BCMA (R&D Systems, catalog no. 193-BC) (human) (UniProt Q02223); experiment: competitive ELISA, plate-bound BCMA; Ab 200.000 ng/mL; competitor APRIL 125.00 ng/mL
[26] = target: BCMA on BCMA-expressing cells (H929 / NCI-H929, MM1.S, U266, Daudi) (human) (UniProt Q02223); experiment: flow cytometry on H929 cells; antibody 0.000 ng/ml (background)

Chain of BCMA on BCMA-expressing cells (H929 / NCI-H929, MM1.S, U266, Daudi) (human) (Q02223 whole entry): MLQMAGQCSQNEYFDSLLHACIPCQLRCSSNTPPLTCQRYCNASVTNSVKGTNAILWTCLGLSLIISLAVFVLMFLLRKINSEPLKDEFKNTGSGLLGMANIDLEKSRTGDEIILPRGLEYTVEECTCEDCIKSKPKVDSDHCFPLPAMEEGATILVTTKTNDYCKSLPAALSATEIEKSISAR

B1: anti-BCMA heavy chain-only antibody (UniAb) with the VH of SEQ ID NO: 12 (antibody, V domains shown)
VH: QVQLVESGGGLVQPGGSLRLSCVASGFTFSSNAMSWVRQAPGKGLEWVSAISGSGDYTHYSDSVKGRFTISRDNSKNTLYLQMNSLRAEDTAVYYCAKEVPGGPLVDFDSRGQGTLVTVSS
notes: Heavy chain-only antibody from UniRat; also called Clone ID No: 316302
B1 showed an MFI [1] of 5170, an MFI [2] of 5240 and an MFI [3] of 2070. For the same binder, the MFI [4] was 2130, the MFI [5] was 14100 and the MFI [6] was 2180. For the same binder, the A450-A570 [7] was 0.063, the A450-A570 [8] was 0.067 and the A450-A570 [9] was 0.0614. The A450-A570 [10] was 0.0661, the A450-A570 [11] was 0.0867 and the A450-A570 [12] was 0.0834. It also gave an A450-A570 [13] of 0.466, an A450-A570 [14] of 0.495 and an A450-A570 [15] of 0.0835. The A450-A570 [16] was 0.0643, the A450-A570 [17] was 0.0615 and the A450-A570 [18] was 0.0736. For the same binder, the A450-A570 [19] was 0.0711, the A450-A570 [20] was 0.482 and the A450-A570 [21] was 0.359. The A450-A570 [22] was 2.44, the A450-A570 [23] was 0.203 and the A450-A570 [24] was 0.112. For the same binder, the A450-A570 [25] was 1.37 and the MFI [26] was 5000.

B2: AntiX**BCMA_F7E_F7E (bispecific antibody, part only; not given: other chains of three-chain format, not shown: another chain or arm of the molecule)
tandem VH: QVQLVESGGGLVQPGGSLRLSCVASGFTFSSNAMSWVRQAPGKGLEWVSAISGSGDYTHYSDSVKGRFTISRDNSKNTLYLQMNSLRAEDTAVYYCAKEVPGGPLVDFDSRGQGTLVTVSSGGGGSGGGGSQVQLVESGGGLVQPGGSLRLSCVASGFTFSSNAMSWVRQAPGKGLEWVSAISGSGDYTHYSDSVKGRFTISRDNSKNTLYLQMNSLRAEDTAVYYCAKEVPGGPLVDFDSRGQGTLVTVSS
With B2 the MFI [1] was 5140, the MFI [2] was 5220 and the MFI [3] was 2010. The MFI [4] was 2110, the MFI [5] was 52900 and the MFI [6] was 2930. For the same binder, the A450-A570 [7] was 0.057, the A450-A570 [8] was 0.0569 and the A450-A570 [9] was 0.0584. The A450-A570 [10] was 0.0587, the A450-A570 [11] was 0.107 and the A450-A570 [12] was 0.098. The A450-A570 [13] was 0.648, the A450-A570 [14] was 0.789 and the A450-A570 [15] was 0.0631. It also gave an A450-A570 [16] of 0.0651, an A450-A570 [17] of 0.0614 and an A450-A570 [18] of 0.108. The A450-A570 [19] was 0.0732, the A450-A570 [20] was 0.778 and the A450-A570 [21] was 0.537. It also gave an A450-A570 [22] of 2.47, an A450-A570 [23] of 0.637 and an A450-A570 [24] of 0.253. The A450-A570 [25] was 2.3 and the MFI [26] was 5000.
